Measured values from IntAct's records for PubMed 9312003.

B1: ADP-ribosylation factor 6 (Homo sapiens), P62330 (parent)
chain: MGKVLSKIFGNKEMRILMLGLDAAGKTTILYKLKLGQSVTTIPTVGFNVETVTYKNVKFNVWDVGGQDKIRPLWRHYYTGTQGLIFVVDCADRDRIDEARQELHRIINDREMRDAIILIFANKQDLPDAMKPHEIQEKLGLTRIRDRNWYVQPSCATSGDGLYEGLTWLTSNYKS
partner: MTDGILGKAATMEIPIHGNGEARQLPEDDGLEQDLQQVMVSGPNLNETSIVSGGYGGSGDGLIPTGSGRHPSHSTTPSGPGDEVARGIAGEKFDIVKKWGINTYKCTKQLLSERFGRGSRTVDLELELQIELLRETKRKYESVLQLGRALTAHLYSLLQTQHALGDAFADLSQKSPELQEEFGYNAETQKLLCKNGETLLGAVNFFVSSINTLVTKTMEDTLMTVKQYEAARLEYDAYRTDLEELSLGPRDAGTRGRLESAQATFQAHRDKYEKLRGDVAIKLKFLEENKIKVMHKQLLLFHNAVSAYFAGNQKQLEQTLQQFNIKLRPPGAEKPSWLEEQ

Variants of: B1
Conditions: with arfp2_human ARFIP2, P53365

Variant	effect of a mutation on the interaction
T28N	decreasing interaction
